For assay [1], the target named is T1, recombinant tau protein (full-length) (human, UniProt P10636 1-441). Put plainly: SPR (Biacore). A general note: SPR reads the build-up and loss of mass on a sensor chip optically.
Assay [2] addresses T1, recombinant tau protein (full-length). Description: SPR (Biacore). The source holds these as a separate data set.

Kd data for three molecules are collected here from patent US20190292245A1 (published 2019).

Where two headings read alike, the source gives them in different places.

T1 sequence (P10636 other isoform, or with tags, fused parts or gaps): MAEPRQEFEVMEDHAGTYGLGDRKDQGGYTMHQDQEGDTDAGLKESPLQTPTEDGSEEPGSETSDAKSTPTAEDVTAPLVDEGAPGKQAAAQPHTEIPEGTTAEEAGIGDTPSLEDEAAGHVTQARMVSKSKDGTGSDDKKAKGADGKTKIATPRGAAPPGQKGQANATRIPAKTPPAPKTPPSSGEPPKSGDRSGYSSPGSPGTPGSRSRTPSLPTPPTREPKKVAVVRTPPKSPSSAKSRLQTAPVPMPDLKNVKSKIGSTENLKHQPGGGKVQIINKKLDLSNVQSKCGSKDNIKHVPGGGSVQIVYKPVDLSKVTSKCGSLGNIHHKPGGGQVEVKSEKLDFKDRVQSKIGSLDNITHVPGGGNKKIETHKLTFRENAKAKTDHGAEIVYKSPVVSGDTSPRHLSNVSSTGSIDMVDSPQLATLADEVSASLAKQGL

B1: 1C9 chimeric humanized antibody (antibody, V domains shown)
VH: EVQLQQSGTVLARPGASVKMSCKTSGYTFTNHWMHWVKQRPGQGLEWIGAIDPGNSDTSYNQKFKGQAKLTAVTSASTAFMELSSLTNEDSAVYYCTRRDFFGGEYAVDYWGQGTSVTVSS
VL: DVVMTQTPLSLPVSLGDQASISCRSSQSLVHSNGNTYLHWYLQKPGQSPKLLIYKVSNRFSGVPDRFSGSGSGTDFTLKISRVEAEDLGVYFCSQSTHVPWTFGGGTKLEIK
The term Kd denotes a measure of binding affinity in units of concentration. Turning to B1, the Kd in assay [1] was determined as 3.91 nM.

B2: mouse monoclonal antibody 1C9 (antibody, V domains shown)
VH: EVQLQQSGTVLARPGASVKMSCKTSGYTFTNHWMHWVKQRPGQGLEWIGAIDPGNSDTSYNQKFKGQAKLTAVTSASTAFMELSSLTNEDSAVYYCTRRDFFGGEYAVDYWGQGTSVTVSS
VL: DVVMTQTPLSLPVSLGDQASISCRSSQSLVHSNGNTYLHWYLQKPGQSPKLLIYKVSNRFSGVPDRFSGSGSGTDFTLKISRVEAEDLGVYFCSQSTHVPWTFGGGTKLEIK
For the molecule B2, the figures for the Kd in assay [1] and in assay [2] were 3.39 nM and 9.51 nM, respectively.

B3: Armanezumab (antibody, V domains shown)
VH: QVQLVQSGAEVKKPGASVKVSCKASGYTFTNHWMHWVRQAPGQGLEWMGAIDPGNSDTSYNQKFKGRVTMTRDTSTSTVYMELSSLRSEDTAVYYCARRDFFGGEYAVDYWGQGTLVTVSS
VL: DIVMTQSPLSLPVTPGEPASISCRSSQSLVHSNGNTYLHWYLQKPGQSPQLLIYKVSNRFSGVPDRFSGSGSGTDFTLKISRVEAEDVGVYYCSQSTHVPWTFGQGTKVEIKR
B3: the Kd in assay [2] was found to be 48 nM.
